Measurements as given in patent US20110104143.

B1: Active Caspase-8 (protein)
chain: SESQTLDKVYQMKSKPRGYCLIINNHNFAKAREKVPKLHSIRDRNGTHLDAGALTTTFEELHFEIKPHDDCTVEQIYEILKIYQLMDHSNMDCFICCILSHGDKGIIYGTDGQEAPIYELTSQFTGLKCPSLAGKPKVFFIQACQGDNYQKGIPVETDSEEQPYLEMDLSSPQTRYIPDEADFLLGMATVNNCVSYRNPAEGTWYIQSLCQSLRERCPRGDDILTILTEVNYEVSNKDDKKNMGKQMPQPTFTLRKKLVFPSD
B2: Active Caspase-2 (protein)
chain: GPVCLQVKPCTPEFYQTHFQLAYRLQSRPRGLALVLSNVHFTGEKELEFRSGGDVDHSTLVTLFKLLGYDVHVLCDQTAQEMQEKLQNFAQLPAHRVTDSCIVALLSHGVEGAIYGVDGKLLQLQEVFQLFDNANCPSLQNKPKMFFIQACRGDETDRGVDQQDGKNHAGSPGCEESDAGKEKLPKMRLPTRSDMICGYACLKGTAAMRNTKRGSWYIEALAQVFSERACDMHVADMLVKVNALIKDREGYAPGTEFHRCKEMSEYCSTLCRHLYLFPGHPPT

Columns and labels:
[1] = molecular target: DDX3 (endogenous, full-length human DDX3 in tumor cell lysates), O00571
DDX3 (endogenous, full-length human DDX3 in tumor cell lysates), O00571, sequence (O00571 whole entry, looked up): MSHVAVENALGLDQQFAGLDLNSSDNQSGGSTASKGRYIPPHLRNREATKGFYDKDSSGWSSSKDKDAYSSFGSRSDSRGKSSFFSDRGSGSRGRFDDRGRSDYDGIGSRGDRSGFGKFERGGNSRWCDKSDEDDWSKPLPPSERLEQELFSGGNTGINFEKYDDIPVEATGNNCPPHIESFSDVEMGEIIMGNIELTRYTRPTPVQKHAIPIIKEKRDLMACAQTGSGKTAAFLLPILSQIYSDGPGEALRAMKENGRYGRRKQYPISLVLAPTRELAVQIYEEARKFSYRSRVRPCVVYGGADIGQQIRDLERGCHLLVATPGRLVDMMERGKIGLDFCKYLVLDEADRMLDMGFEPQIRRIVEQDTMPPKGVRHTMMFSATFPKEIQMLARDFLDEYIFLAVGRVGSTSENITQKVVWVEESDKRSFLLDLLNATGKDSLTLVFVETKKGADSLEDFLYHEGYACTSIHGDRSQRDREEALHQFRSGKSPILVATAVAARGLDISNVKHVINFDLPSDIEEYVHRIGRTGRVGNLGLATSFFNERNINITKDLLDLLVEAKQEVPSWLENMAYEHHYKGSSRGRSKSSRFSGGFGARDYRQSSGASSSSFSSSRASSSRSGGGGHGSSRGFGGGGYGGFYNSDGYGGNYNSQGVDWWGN

cIAP1, Q13490, sequence (Q13490 whole entry): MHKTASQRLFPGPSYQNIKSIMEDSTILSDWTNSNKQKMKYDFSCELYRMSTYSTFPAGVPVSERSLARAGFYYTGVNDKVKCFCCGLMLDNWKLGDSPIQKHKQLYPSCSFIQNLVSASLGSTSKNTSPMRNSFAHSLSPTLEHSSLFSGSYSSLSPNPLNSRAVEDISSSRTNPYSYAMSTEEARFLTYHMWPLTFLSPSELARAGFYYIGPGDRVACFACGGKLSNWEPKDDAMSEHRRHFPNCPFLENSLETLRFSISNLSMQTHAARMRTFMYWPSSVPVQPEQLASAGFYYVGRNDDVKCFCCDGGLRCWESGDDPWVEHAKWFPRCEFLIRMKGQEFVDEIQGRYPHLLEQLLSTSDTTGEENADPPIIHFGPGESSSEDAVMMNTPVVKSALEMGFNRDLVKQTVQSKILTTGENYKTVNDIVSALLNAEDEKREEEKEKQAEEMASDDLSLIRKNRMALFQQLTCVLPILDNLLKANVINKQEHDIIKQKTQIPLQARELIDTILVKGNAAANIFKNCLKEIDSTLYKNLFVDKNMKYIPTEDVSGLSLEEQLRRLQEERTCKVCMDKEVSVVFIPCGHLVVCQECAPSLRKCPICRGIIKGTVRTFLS

Row | Protein | cleavage of DR5-associated DDX3 by active caspase, Western blot with anti-DDX3 antibody [1] | caspase-8 protease activity on the fluorogenic substrate Ac-IETD-AMC (cIAP1, Q13490)
1 | B1 | DDX3 cleavage by caspase-8 in resistant cells was highly attenuated compared to sensitive cells | purified cIAP1 also suppressed caspase-8 protease activity completely
2 | B2 | caspase-2 exhibited similar protease potential in both cells | –
